Changes are numbered by the printed parent chain. One block for each molecule: values may come before it.
How the values were obtained:
[1] = target: T1, human EGF receptor (human, UniProt P00533); assay: competition of 125I-EGF binding to NRHER5 membranes, 50% inhibition
[2] = target: T1, human EGF receptor; assay: competition of 125I-EGF binding to NRHER5 membranes

IC50 [1]: > 300 nM
Molecule: gp35, 35-40 kD soluble high molecular weight form of human AR (ligand)

maximum competition [2]: 85% | IC50 [1]: 100 nM
Molecule: native amphiregulin (AR) purified from TPA-treated MCF-7 cells (ligand)

IC50 [1]: ~1.5 nM
B1: bacterially produced AAAT (ligand)
chain: MVVKPPQNKTESENTSDKPKRKKKGGKNGKNRRNRKKKNPCNAEFQNFCIHGECKYIEHLEAVTCKCQQEYFGERCGEKDLLA

IC50 [1]: ~150 nM
B2: bacterially produced AR-SMKT (ligand)
chain: B1 chain with D80S, L81M, L82K, A83T

IC50 [1]: ~100 nM
B3: recombinant human AR 18 kD purified from CHO/ARGE 2a cells (ligand)
chain: NKTESEKTSDKPKRKKKGGKNGKNRRNRKKKNLCDTEFQNFCIHGKCTFLEQLETVSCQCYPEYFGERCGEKSMKTQSMVD
modifications: N-linked glycosylation at Asn-113
